molecular target: PABP1-190 (RRM1/2) (human, UniProt P11940 1-190); experiment: MST competition
Sequence (P11940 1-190): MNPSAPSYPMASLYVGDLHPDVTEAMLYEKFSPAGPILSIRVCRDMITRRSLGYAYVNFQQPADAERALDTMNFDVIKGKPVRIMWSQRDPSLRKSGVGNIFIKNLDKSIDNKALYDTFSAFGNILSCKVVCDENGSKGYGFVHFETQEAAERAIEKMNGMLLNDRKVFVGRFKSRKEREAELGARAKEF

| Binder | binding signal |
| --- | --- |
| AAAAAAAAAAAA (XNA, 2'-O-methyl-A in middle part; positions in Figure 2/Table 1) [Am2] | ~7 fold higher Kd app than A12 |
| AAAAAAAAAAAA (XNA, 2'-F-A in middle part; positions in Figure 2/Table 1) [AF2] | ~4 fold higher Kd app than A12 |
| AAAAAAAAAAAA (ssRNA, N6-methyl-A in middle part; positions in Figure 2/Table 1) [m6A2] | ~12 fold higher Kd app than A12 |

From article PMC9400960
